Laboratory results from article PMC9504514, “Identification of a Potential Inhibitor (MCULE-8777613195-0-12) of New Delhi Metallo-β-Lactamase-1 (NDM-1) Using In Silico and In Vitro Approaches” (Molecules, 2022).

Columns and labels:
[1] = molecular target: T1, New Delhi metallo-β-lactamase-1 (NDM-1) (Klebsiella pneumoniae, UniProt C7C422); test: biochemical
T1 construct: gene blaNDM-1

[2] = system: CC1(C)S[C@@H]2[C@H](NC(=O)[C@H](N)c3ccccc3)C(=O)N2[C@H]1C(=O)O; test: steady-state hydrolysis kinetics (Km) with purified NDM-1; type: biochemical, Klebsiella pneumoniae; conditions: Zn2+ (two zinc ions)
[3] = system: CO/N=C(\C(=O)N[C@@H]1C(=O)N2C(C(=O)O)=C(COC(C)=O)CS[C@H]12)c1csc(N)n1; test: as above; type: biochemical, Klebsiella pneumoniae; conditions: Zn2+ (two zinc ions)
[4] = system: C[C@@H](O)[C@H]1C(=O)N2C(C(=O)O)=C(SCCN=CN)C[C@H]12; test: as above; type: biochemical, Klebsiella pneumoniae; conditions: Zn2+ (two zinc ions)
[5] = system: C[C@@H](O)[C@H]1C(=O)N2C(C(=O)O)=C(S[C@@H]3CN[C@H](C(=O)N(C)C)C3)[C@H](C)[C@H]12; test: as above; type: biochemical, Klebsiella pneumoniae; conditions: Zn2+ (two zinc ions) substrate binding site (docking)
[6] = molecular target: T1, New Delhi metallo-β-lactamase-1 (NDM-1); test: as above; type: biochemical

T1 sequence (C7C422 29-270 limits assumed): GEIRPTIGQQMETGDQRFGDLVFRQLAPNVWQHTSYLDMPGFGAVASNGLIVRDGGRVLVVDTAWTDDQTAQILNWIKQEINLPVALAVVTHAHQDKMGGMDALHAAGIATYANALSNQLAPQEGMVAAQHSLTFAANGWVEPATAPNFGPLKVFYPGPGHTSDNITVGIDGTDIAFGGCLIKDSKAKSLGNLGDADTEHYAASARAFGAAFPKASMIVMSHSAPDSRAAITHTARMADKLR

`N#CC1=Cc2ccccc2[C@@H]2NN3C(C#N)=Cc4ccccc4[C@@H]3NN12` [MCULE-8777613195-0-12, [3R,14R]-1,2,12,13-tetrazapentacyclo [12.8.0.03,12.04,9.015,20]docosa-4,6,8,10,15,17,19,21-octaene-11,22-dicarbonitrile] was tested, and the IC50 [1] was 54.2 ± 6.3 µM.
“New Delhi metallo-β-lactamase-1 (NDM-1) (Klebsiella pneumoniae)” was tested, and the Km [2] was 99.4 ± 7.6 µM, the kcat [2] was 392 ± 25.7 s⁻¹ and the kcat/Km [2] was 3.94e+06 ± 140000 M⁻¹ s⁻¹. It also gave a Km [3] of 61.6 ± 5.8 µM, a kcat [3] of 413 ± 28.1 s⁻¹ and a kcat/Km [3] of 6.7e+06 ± 270000 M⁻¹ s⁻¹. It also gave a Km [4] of 83.9 ± 6.7 µM, a kcat [4] of 700 ± 18.7 s⁻¹ and a kcat/Km [4] of 8.34e+06 ± 640000 M⁻¹ s⁻¹. It also gave a Km [5] of 58.3 ± 5.2 µM, a kcat [5] of 301 ± 11.9 s⁻¹ and a kcat/Km [5] of 5.17e+06 ± 330000 M⁻¹ s⁻¹.
For `O=C(Cc1cccs1)N[C@@H]1C(=O)N2C(C(=O)O)=C(/C=C/c3ccc([N+](=O)[O-])cc3[N+](=O)[O-])CS[C@H]12` [nitrocefin], the Km [6] was 27.1 ± 2.1 µM.
